Drawing on the RNAGym collection of RNA variant scans (doi:10.7554/elife.90254), this text covers self-cleavage for 39 variants.

B1: LINE1-full (parent)
chain: UACGUAGGUGGUUUUCCCCUGAUAGUGCUAAGGGGGCCUGGAAGUUUGGACUGGGCAGAGCUCAACACAGCGUGGCAAAGUGGCUGUGGCUAGACUGCCUCUCUGGAUUCCUCGUCACUCAGCAGGGCAUCUCUGAGAGAAAUGCC

This data set covers variants of B1. Description: self-cleavage, relative activity (ratio to wild type); higher = more cleavage; in vitro, sequencing; the parent is a self-cleaving ribozyme.
As for UACGUAGGUGGUUUUCCCCUGAUAGUGCUAAGGGGGCCUGGAAGUUUGGACUGGGCAGAGCUCAACACAGCGUGGCAAAGUGGCUGUGGCUAGACUGCCUCUCUGGAUUCCUCGUCACUCAGCAGAGCACCUCUGAGAGAAAUGCC, the self-cleavage was determined as 1.41.
Then UACGUAGGUGGUUUUCCCCUGAUAGUGCUAAGGGGGCCUGGAAGUUUGGACUGGGCAGAGCUCAACACAGCGUGGCAAAGUGGCUGUGGCUAGACUGCCUCUCUGGAUUCCUCGUCACUCAGCAGGACAUCUCUGAGAGUAAUGCC, with 1.26; and UACGUAGGUGGUUUUCCCCUGAUAGUGCUAAGGGGGCCUGGAAGUUUGGACUGGGCAGAGCUCAACACAGCGUGGCAAAGUGGCUGUGGCUAGACUGCCUCUCUGGAUUCCUCGUCACUCAGCAUGGCAUCUCCGAGAGAAAUGCC, with 1.2.
As to UACGUAGGUGGUUUUCCCCUGAUAGUGCUAAGGGGGCCUGGAAGUUUGGACUGGGCAGAGCUCAACACAGCGUGGCAAAGUGGCUGUGGCUAGACUGCCUCUCUGGAUUCCUCGUCACUCAGCAAGGCAUCUCUGAGGGAAAUGCC, the self-cleavage stood at 1.01.
Consider UACGUAGGUGGUUUUCCCCUGAUAGUGCUAAGGGGGCCUGGAAGUUUGGACUGGGCAGAGCUCAACACAGCGUGGCAAAGUGGCUGUGGCUAGACUGCCUCUCUGGAUUCCUCGUCACUCAGCAUGGCAUCUCUGAGGGAAAUGCC, for which the self-cleavage was found to be 2.25.
UACGUAGGUGGUUUUCCCCUGAUAGUGCUAAGGGGGCCUGGAAGUUUGGACUGGGCAGAGCUCAACACAGCGUGGCAAAGUGGCUGUGGCUAGACUGCCUCUCUGGAUUCCUCGUCACUCAGCAUGGCAUCUCUGGGAGAAAUGCC: the self-cleavage was 0.79.
Regarding UACGUAGGUGGUUUUCCCCUGAUAGUGCUAAGGGGGCCUGGAAGUUUGGACUGGGCAGAGCUCAACACAGCGUGGCAAAGUGGCUGUGGCUAGACUGCCUCUCUGGAUUCCUCGUCACUCAGCUGGGCAACUCUGAGAGAAAUGCC, the self-cleavage was 1.7.
Turning to UACGUAGGUGGUUUUCCCCUGAUAGUGCUAAGGGGGCCUGGAAGUUUGGACUGGGCAGAGCUCAACACAGCGUGGCAAAGUGGCUGUGGCUAGACUGCCUCUCUGGAUUCCUCGUCACUCAGCUGGGCACCUCUGAGAGAAAUGCC, the self-cleavage is 1.66.
For UACGUAGGUGGUUUUCCCCUGAUAGUGCUAAGGGGGCCUGGAAGUUUGGACUGGGCAGAGCUCAACACAGCGUGGCAAAGUGGCUGUGGCUAGACUGCCUCUCUGGAUUCCUCGUCACUCAGCAGGACAUCCCUGAGAGAAAUGCC, the self-cleavage was found to be 0.78.
In the case of UACGUAGGUGGUUUUCCCCUGAUAGUGCUAAGGGGGCCUGGAAGUUUGGACUGGGCAGAGCUCAACACAGCGUGGCAAAGUGGCUGUGGCUAGACUGCCUCUCUGGAUUCCUCGUCACUCAGCUGGGCAUCUCUGAGAGAAACGCC, the self-cleavage amounted to 1.26.
Next, UACGUAGGUGGUUUUCCCCUGAUAGUGCUAAGGGGGCCUGGAAGUUUGGACUGGGCAGAGCUCAACACAGCGUGGCAAAGUGGCUGUGGCUAGACUGCCUCUCUGGAUUCCUCGUCACUCAGCUGGGCAUCUCUGAGAGAAAAGCC: 1.75; UACGUAGGUGGUUUUCCCCUGAUAGUGCUAAGGGGGCCUGGAAGUUUGGACUGGGCAGAGCUCAACACAGCGUGGCAAAGUGGCUGUGGCUAGACUGCCUCUCUGGAUUCCUCGUCACUCAGCAAGGCAUCUCUGAGAGAAAUGCU: 1.36.
UACGUAGGUGGUUUUCCCCUGAUAGUGCUAAGGGGGCCUGGAAGUUUGGACUGGGCAGAGCUCAACACAGCGUGGCAAAGUGGCUGUGGCUAGACUGCCUCUCUGGAUUCCUCGUCACUCAGCAGCGCGUCUCUGAGAGAAAUGCC: the self-cleavage stood at 2.02.
Consider UACGUAGGUGGUUUUCCCCUGAUAGUGCUAAGGGGGCCUGGAAGUUUGGACUGGGCAGAGCUCAACACAGCGUGGCAAAGUGGCUGUGGCUAGACUGCCUCUCUGGAUUCCUCGUCACUCAGCAGUGCAUCUCUGAGAGGAAUGCC, for which the self-cleavage was determined as 0.66.
Consider UACGUAGGUGGUUUUCCCCUGAUAGUGCUAAGGGGGCCUGGAAGUUUGGACUGGGCAGAGCUCAACACAGCGUGGCAAAGUGGCUGUGGCUAGACUGCCUCUCUGGAUUCCUCGUCACUCAGCAUGGCAUCUCUGAGAGAAAUUCC, for which the self-cleavage stood at 1.72.
As to UACGUAGGUGGUUUUCCCCUGAUAGUGCUAAGGGGGCCUGGAAGUUUGGACUGGGCAGAGCUCAACACAGCGUGGCAAAGUGGCUGUGGCUAGACUGCCUCUCUGGAUUCCUCGUCACUCAGCAGGACACCUCUGAGAGAAAUGCC, the self-cleavage was determined as 1.31.
In the case of UACGUAGGUGGUUUUCCCCUGAUAGUGCUAAGGGGGCCUGGAAGUUUGGACUGGGCAGAGCUCAACACAGCGUGGCAAAGUGGCUGUGGCUAGACUGCCUCUCUGGAUUCCUCGUCACUCAGCAAGGCAACUCUGAGAGAAAUGCC, the self-cleavage amounted to 1.61.
For the variant UACGUAGGUGGUUUUCCCCUGAUAGUGCUAAGGGGGCCUGGAAGUUUGGACUGGGCAGAGCUCAACACAGCGUGGCAAAGUGGCUGUGGCUAGACUGCCUCUCUGGAUUCCUCGUCACUCAGCAAGGCACCUCUGAGAGAAAUGCC, the self-cleavage stood at 1.69.
Regarding UACGUAGGUGGUUUUCCCCUGAUAGUGCUAAGGGGGCCUGGAAGUUUGGACUGGGCAGAGCUCAACACAGCGUGGCAAAGUGGCUGUGGCUAGACUGCCUCUCUGGAUUCCUCGUCACUCAGCUGGGCAUCUCAGAGAGAAAUGCC, the self-cleavage was determined as 1.31.
UACGUAGGUGGUUUUCCCCUGAUAGUGCUAAGGGGGCCUGGAAGUUUGGACUGGGCAGAGCUCAACACAGCGUGGCAAAGUGGCUGUGGCUAGACUGCCUCUCUGGAUUCCUCGUCACUCAGCAGGACAUCUCUGAGAGAGAUGCC: the self-cleavage was found to be 0.99.
On to UACGUAGGUGGUUUUCCCCUGAUAGUGCUAAGGGGGCCUGGAAGUUUGGACUGGGCAGAGCUCAACACAGCGUGGCAAAGUGGCUGUGGCUAGACUGCCUCUCUGGAUUCCUCGUCACUCAGCAGGAUAUCUCUGAGAGAAAUGCC, for which the self-cleavage stood at 1.13.
Next, UACGUAGGUGGUUUUCCCCUGAUAGUGCUAAGGGGGCCUGGAAGUUUGGACUGGGCAGAGCUCAACACAGCGUGGCAAAGUGGCUGUGGCUAGACUGCCUCUCUGGAUUCCUCGUCACUCAGCUGGGCAUCACUGAGAGAAAUGCC: 1.56.
Consider UACGUAGGUGGUUUUCCCCUGAUAGUGCUAAGGGGGCCUGGAAGUUUGGACUGGGCAGAGCUCAACACAGCGUGGCAAAGUGGCUGUGGCUAGACUGCCUCUCUGGAUUCCUCGUCACUCAGCAUGGCAUCUCUGAGAGAAGUGCC, for which the self-cleavage amounted to 1.33.
Consider UACGUAGGUGGUUUUCCCCUGAUAGUGCUAAGGGGGCCUGGAAGUUUGGACUGGGCAGAGCUCAACACAGCGUGGCAAAGUGGCUGUGGCUAGACUGCCUCUCUGGAUUCCUCGUCACUCAGCAGGACAUCUCUGAGAGAAAUGAC, for which the self-cleavage came to 1.32.
Next, UACGUAGGUGGUUUUCCCCUGAUAGUGCUAAGGGGGCCUGGAAGUUUGGACUGGGCAGAGCUCAACACAGCGUGGCAAAGUGGCUGUGGCUAGACUGCCUCUCUGGAUUCCUCGUCACUCAGCAUGGCAUCUCUGAGAGAAACGCC: 1.08.
In the case of UACGUAGGUGGUUUUCCCCUGAUAGUGCUAAGGGGGCCUGGAAGUUUGGACUGGGCAGAGCUCAACACAGCGUGGCAAAGUGGCUGUGGCUAGACUGCCUCUCUGGAUUCCUCGUCACUCAGCAGAGCAUCUCUGAGAGGAAUGCC, the self-cleavage worked out at 1.49.
On to UACGUAGGUGGUUUUCCCCUGAUAGUGCUAAGGGGGCCUGGAAGUUUGGACUGGGCAGAGCUCAACACAGCGUGGCAAAGUGGCUGUGGCUAGACUGCCUCUCUGGAUUCCUCGUCACUCAGCAGGUCAUCUCUGAGAGAAAUGCC, for which the self-cleavage was found to be 1.24.
With UACGUAGGUGGUUUUCCCCUGAUAGUGCUAAGGGGGCCUGGAAGUUUGGACUGGGCAGAGCUCAACACAGCGUGGCAAAGUGGCUGUGGCUAGACUGCCUCUCUGGAUUCCUCGUCACUCAGCAGGCCAUCUCUGAGAGAAAUGCC, the self-cleavage was 1.45.
As to UACGUAGGUGGUUUUCCCCUGAUAGUGCUAAGGGGGCCUGGAAGUUUGGACUGGGCAGAGCUCAACACAGCGUGGCAAAGUGGCUGUGGCUAGACUGCCUCUCUGGAUUCCUCGUCACUCAGCAGGACAUCUCUGAGAGAAAUGCC, the self-cleavage was 1.16.
As to UACGUAGGUGGUUUUCCCCUGAUAGUGCUAAGGGGGCCUGGAAGUUUGGACUGGGCAGAGCUCAACACAGCGUGGCAAAGUGGCUGUGGCUAGACUGCCUCUCUGGAUUCCUCGUCACUCAGCAGGACAUCUCUGGGAGAAAUGCC, the self-cleavage was found to be 1.5.
Then UACGUAGGUGGUUUUCCCCUGAUAGUGCUAAGGGGGCCUGGAAGUUUGGACUGGGCAGAGCUCAACACAGCGUGGCAAAGUGGCUGUGGCUAGACUGCCUCUCUGGAUUCCUCGUCACUCAGCAGGACAUCUCUGUGAGAAAUGCC, with 1.65; and UACGUAGGUGGUUUUCCCCUGAUAGUGCUAAGGGGGCCUGGAAGUUUGGACUGGGCAGAGCUCAACACAGCGUGGCAAAGUGGCUGUGGCUAGACUGCCUCUCUGGAUUCCUCGUCACUCAGCAGGCCAUCCCUGAGAGAAAUGCC, with 1.99.
With UACGUAGGUGGUUUUCCCCUGAUAGUGCUAAGGGGGCCUGGAAGUUUGGACUGGGCAGAGCUCAACACAGCGUGGCAAAGUGGCUGUGGCUAGACUGCCUCUCUGGAUUCCUCGUCACUCAGCAAGGCUUCUCUGAGAGAAAUGCC, the self-cleavage was 0.46.
As to UACGUAGGUGGUUUUCCCCUGAUAGUGCUAAGGGGGCCUGGAAGUUUGGACUGGGCAGAGCUCAACACAGCGUGGCAAAGUGGCUGUGGCUAGACUGCCUCUCUGGAUUCCUCGUCACUCAGCAAGGCGUCUCUGAGAGAAAUGCC, the self-cleavage amounted to 1.38.
In the case of UACGUAGGUGGUUUUCCCCUGAUAGUGCUAAGGGGGCCUGGAAGUUUGGACUGGGCAGAGCUCAACACAGCGUGGCAAAGUGGCUGUGGCUAGACUGCCUCUCUGGAUUCCUCGUCACUCAGCUGGGCAUAUCUGAGAGAAAUGCC, the self-cleavage came to 0.96.
Turning to UACGUAGGUGGUUUUCCCCUGAUAGUGCUAAGGGGGCCUGGAAGUUUGGACUGGGCAGAGCUCAACACAGCGUGGCAAAGUGGCUGUGGCUAGACUGCCUCUCUGGAUUCCUCGUCACUCAGCAAGGCAUCUCUGAGAGUAAUGCC, the self-cleavage was 0.61.
Turning to UACGUAGGUGGUUUUCCCCUGAUAGUGCUAAGGGGGCCUGGAAGUUUGGACUGGGCAGAGCUCAACACAGCGUGGCAAAGUGGCUGUGGCUAGACUGCCUCUCUGGAUUCCUCGUCACUCAGCAAGGCAUCUCUGAGAGAAACGCC, the self-cleavage was found to be 0.64.
As for UACGUAGGUGGUUUUCCCCUGAUAGUGCUAAGGGGGCCUGGAAGUUUGGACUGGGCAGAGCUCAACACAGCGUGGCAAAGUGGCUGUGGCUAGACUGCCUCUCUGGAUUCCUCGUCACUCAGCAGGACAUCUCUGAGUGAAAUGCC, the self-cleavage amounted to 1.5.
Next, UACGUAGGUGGUUUUCCCCUGAUAGUGCUAAGGGGGCCUGGAAGUUUGGACUGGGCAGAGCUCAACACAGCGUGGCAAAGUGGCUGUGGCUAGACUGCCUCUCUGGAUUCCUCGUCACUCAGCUGGUCAUCUCUGAGAGAAAUGCC: 1.62.
